Legend:
MM.1S and MM.1R cells = assay: TNF- and LT-induced proliferation of MM.1S and MM.1R cells (thymidine incorporation); assay type: cell-based, human; conditions: serum starved 12 h, 48 hours serum-free
Protocol: (§1) The cell proliferation assay was performed as described below. Results are shown as mean (±s.d. indicated by error bar) of percent [^3H] thymidine incorporation of triplicate cultures compared to the untreated control. […] Cells were treated with IL-6 for 10 minutes as a positive control for STAT3 phosphorylation. Thirty micrograms of whole cell extract was were resolved on 7.5% SDS-PAGE, electrotransferred to a nitrocellulose membrane, and probed for phosphorylated-STAT3 (upper panel), stripped, and reprobed for STAT3 (lower panel).
The antiproliferative effects of curcumin were also monitored by the thymidine incorporation method. For this, 5000 cells in 100 μl medium were cultured in triplicate in 96-well plates in the presence or absence of curcumin for 24 h. Six hours before the completion of experiment, cells were pulse treated with 0.5 μCi [^3H]thymidine, and the uptake of [^3H]thymidine was monitored using a Matrix-9600 β-counter (Packard Instruments, Downers Grove, Ill.).
(§2) MM.1S and MM.1R cells were serum starved for 12 h and then treated with TNF or lymphotoxin in the serum free medium.

STAT3 phosphorylation = STAT3 phosphorylation in MM.1S and MM.1R cells after TNF, LT or IL-6 (Western blot); assay type: cell-based, human; conditions: 1 nM TNF or LT
Protocol: as §1
For detection of STAT proteins, whole-cell extracts were prepared by lysing the curcumin-treated cells in lysis buffer (20 mM Tris, pH 7.4, 250 mM NaCl, 2 mM EDTA, pH 8.0, 0.1% Triton-X100, 0.01 mg/ml aprotinin, 0.005 mg/ml leupeptin, 0.4 mM PMSF, and 4 mM NaVO4). Lysates were then spun at 14000 rpm for 10 min to remove insoluble material, and resolved on a 7.5% gel. After electrophoresis, the proteins were electrotransferred to a nitrocellulose membrane, blocked with 5% nonfat milk, and probed with anti-STAT antibodies (1:1000) overnight at 4° C. The blot was washed, exposed to HRP-conjugated secondary antibodies for 1 h, and finally examined by chemiluminescence (ECL, Amersham Pharmacia Biotech. Arlington Heights, Ill.).
as §2

B1: lymphotoxin: bacteria-derived recombinant human LT provided by Genentech (protein, UniProt P01374 35-205, looked up)
Lymphotoxin-alpha: LPGVGLTPSAAQTARQHPKMHLAHSTLKPAAHLIGDPSKQNSLLWRANTDRAFLQDGFSLSNNSLLVPTSGIYFVYSQVVFSGKAYSPKATSSPLYLAHEVQLFSSQYPFHVPLLSSQKMVYPGLQEPWLHSMYHGAAFQLTQGDQLSTHTDGIPHLVLSPSTVFFGAFAL
- proliferative effects in MM.1S and MM.1R cells (MM.1S and MM.1R cells): more pronounced in dex-resistant MM.1R cells than in dex-sensitive MM.1S cells
- induction of STAT3 phosphorylation (STAT3 phosphorylation): neither TNF nor lymphotoxin induced STAT3 phosphorylation
